This is an account of results in US20220213176A1.

Read-outs that look alike come from different tables or passages of the source.

Common to all, as to details: remark: other sources report otherwise
Test [1] deals with N501Y S-RBD (SARS-CoV-2), P0DTC2. Briefly: BLI (Octet), N501Y S-RBD amine coupled on AR2G sensor, 1:1 fit.
Test [2] concerns the target T1, SARS-CoV-2 spike receptor binding domain, wild-type (S-RBD) (SARS-CoV-2), P0DTC2.
Test [3] has as its target T1, SARS-CoV-2 spike receptor binding …. Briefly: BLI (Octet), S-RBD amine coupled on AR2G sensor, IgG4 in solution, 1:1 fit.
Test [4] addresses N501Y S-RBD (SARS-CoV-2), P0DTC2.
For test [5], the target named is SARS-CoV-2 spike N439K+D614G (SARS-CoV-2), P0DTC2.
In test [6] the target is SARS-CoV-2 spike K417N+N501Y+D614G (SARS-CoV-2), P0DTC2.
Test [7] has as its target SARS-CoV-2 spike D215H (SARS-CoV-2), P0DTC2.
The target of test [8] is T2, SARS-CoV-2 spike K417N+E484K+N501Y+D614G (SARS-CoV-2), P0DTC2.
Test [9] has as its target SARS-CoV-2 spike S247R (SARS-CoV-2), P0DTC2.
For test [10], the target named is SARS-CoV-2 spike E484K+N501Y+D614G (SARS-CoV-2), P0DTC2.
For test [11], the target named is SARS-CoV-2 spike N501Y+D614G (SARS-CoV-2), P0DTC2.
The target in test [12] is SARS-CoV-2 spike D614G (SARS-CoV-2), P0DTC2.
Test [13] has as its target T2, SARS-CoV-2 spike …. Briefly: FACS MFI on transfected HEK293T cells, against D614G spike (mut 3).
Test [14] concerns the target SARS-CoV-2 spike E484K+N501Y+D614G (SARS-CoV-2), P0DTC2. The test is described as above.
Test [15] addresses N501Y S-RBD (SARS-CoV-2), P0DTC2. Briefly: BLI (Octet), N501Y S-RBD amine-coupled on AR2G sensor, 1:1 binding model.
In test [16] the target is full-length SARS-CoV-2 spike (SARS-CoV-2), P0DTC2.
Test [17] addresses T1, SARS-CoV-2 spike receptor binding …. Kind of test: BLI (Octet), S-RBD amine-coupled on AR2G sensor, 1:1 binding model [cont'd) h].
The target in test [18] is B.1.351 S-RBD (SARS-CoV-2), P0DTC2. Briefly: BLI (Octet RED96), biotinylated B.1.351 S-RBD on SA biosensor, 1:1 binding model.
Test [19] concerns the target N501Y S-RBD (SARS-CoV-2), P0DTC2. Briefly: BLI (Octet), biotinylated N501Y S-RBD on SA sensor, 1:1 fit.
Test [20] has as its target T1, SARS-CoV-2 spike receptor binding …. Kind of test: BLI (Octet RED96), biotin S-RBD on SA sensor, 1:1 fit; dimer S-E6, WT S-RBD.
Test [21] shares this target. Kind of test: BLI (Octet), biotinylated S-RBD on SA sensor, IgG4 in solution, 1:1 fit.
The target in test [22] is N501Y S-RBD (SARS-CoV-2), P0DTC2. Briefly: BLI (Octet), biotinylated N501Y S-RBD on SA biosensor, 1:1 binding model.
The target of test [23] is T1, SARS-CoV-2 spike receptor binding …. Kind of test: BLI (Octet), biotinylated S-RBD on SA biosensor, 1:1 binding model [cont'd) h].
Test [24] shares this target. Briefly: BLI (Octet RED96), biotinylated WT S-RBD on SA biosensor, 1:1 binding model.
Test [25] addresses B.1.351 S-RBD (SARS-CoV-2), P0DTC2. Briefly: BLI (Octet RED96), biotin B.1.351 S-RBD on SA sensor, 1:1 fit.

B1: S-D4 (antibody, V domains shown)
VH: QVQLQESGGGVVQPGRSLRLSCEVSGFTFSDYGMHWVRQAPGKGLEWVAVIWSEGSTEYYADSVKGRFTISRDNSKDTLYLQMNSLRAEDTAVYYCARPGYPTSTDRSPAAAGARQYYYYGMDVWGQGTTVTVSS
VL: NFMLTQPHSVSESPGKTVTISCTRSGGSGAANYVQWYQQRPGSSPTTLIYEDSRRPPGVPDRFSGSVDTSSNSASLTISGLQTEDEADYYCQSYDSSNHVVFGGGTKLTVLG
On to B1, for which the Kd was found to be 0.097 nM in test [1] and 0.12 nM in [3]. Also, the IC50 in test [2] stood at 7.1 nM. Besides, the koff worked out at 4.2e-05 s⁻¹ in [4], 4.2e-05 s⁻¹ in [15] and 4.6e-05 s⁻¹ in [17]. The kon in test [4] amounted to 440000 M⁻¹ s⁻¹; in test [15], 440000 M⁻¹ s⁻¹; in test [17], 390000 M⁻¹ s⁻¹. Also, the MFI in test [5] was found to be 360000; in test [6] it was 155000; in test [7] it was 411000; in test [8], 147000; in test [9], 335000; in [10], 138000. The MFI in test [11] turned out to be 281000; in test [12], 414000; in test [16], 43000. Besides, the MFI as percent of mut 3 in test [13] is 35.6 % of mut 3; in [14], 33.2 % of mut 3.

B2: S-E6 (antibody, V domains shown)
VH: QVTLRESGPGLVKPSETLSLTCAVSGGSLSSVNYYWSWIRQHPGKGLEWIGYIYYSGSTNYNPSLKSRVTMSLDTSKNQFSLKLSSVTAADTAVYYCATPGAIMGALHIWGQGTLVTVSS
VL: QAVLTQPSSASSTPGQRVIISCSGSSSNIGSNTVSWYQQVPGAAPKLLIYFDYRRPSGVPDRFSGTRSGTSASLGISGLQSEDEADYYCAAWDDSLSAWVFGRGTKLTVLG
For the molecule B2, the Kd in test [18] stood at 1.58 nM; in test [19], 0.21 nM; in test [20], 0.0836 nM; in test [21], 0.11 nM; in test [25], 1.58 nM. Besides, the koff amounted to 0.000915 s⁻¹ in test [18]; 0.00025 s⁻¹ in [4]; 0.00025 s⁻¹ in test [22]; 0.00013 s⁻¹ in [23]; 3.37e-05 s⁻¹ in test [24]. In addition, the kon came to 581000 M⁻¹ s⁻¹ in [18]; 1.2e+06 M⁻¹ s⁻¹ in test [4]; 1.2e+06 M⁻¹ s⁻¹ in [22]; 1.2e+06 M⁻¹ s⁻¹ in test [23]; 403000 M⁻¹ s⁻¹ in [24]. In [2], this molecule had an IC50 of 12.2 nM. Further, the MFI in [5] turned out to be 133000; in [6] it was 312000; in [7] it was 135000; in test [8], 141000; in [9] it was 109000; in test [10] it was 139000. Further, the MFI in [11] turned out to be 153000; in test [12], 157000; in test [16], 18200.
